B1: library; numbered along this chain (parent)
chain: MAAAGGARLLRAASAVLGGPAGRWLHHAGSRAGSSGLLRNRGPGGSAEASRSLSVSARARSSSEDKITVHFINRDGETLTTKGKVGDSLLDVVVENNLDIDGFGACEGTLACSTCHLIFEDHIYEKLDAITDEENDMLDLAYGLTDRSRLGCQICLTKSMDNMTVRVPETVADARQSIDVGKTS

Variants of: B1
Assay: scaled log2 fold change in cell abundance, elesclomol vs control (0 = silent mean, 1 = nonsense mean) (scaled log2 ratio); higher = higher viability under elesclomol (loss of FDX1 cuproptosis function)
Settings: glucose 10 mM
[1] = with ABC1 FDX1 KO, elesclomol 5 nM, 14 days
[2] = with HEK293T FDX1 KO, elesclomol 40 nM, 11 days
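Also: variant abundance is its share of total variant reads in each endpoint sample, from next-generation sequencing of the integrated ORF PCR-amplified out of genomic DNA.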

Variant	scaled log2 fold change [1]	scaled log2 fold change [2]
MAAAGGARLLRAASAVLGGPAGRWLHHAGSRAGSSGLLRNRGPGGSAEASRSLSVSARARSSSEDKITVHFINRDGETLTTKGKVGDSLLDVVVENNLDIDGFGACEGTLACSTCHLIFEDHIYEKLDAITDEENDMLDLAYGLTDRSRLMCQICLTKSMDNMTVRVPETVADARQSIDVGKTS [G151M]	1.01	1.15
MAAAGGARLLRAASAVLGGPAGRWLHHAGSRAGSSGLLRNRGPGGSAEASRSLSVSARARSSSEDKITVHFINRDGETLTTKGKVGDSLLDVVVENNLDIDGFGACEGTLACSTCHLIFEDHIYEKLDAITDEENDMLDLAYGLTDRSRLNCQICLTKSMDNMTVRVPETVADARQSIDVGKTS [G151N]	1.12	1.08
MAAAGGARLLRAASAVLGGPAGRWLHHAGSRAGSSGLLRNRGPGGSAEASRSLSVSARARSSSEDKITVHFINRDGETLTTKGKVGDSLLDVVVENNLDIDGFGACEGTLACSTCHLIFEDHIYEKLDAITDEENDMLDLAYGLTDRSRLPCQICLTKSMDNMTVRVPETVADARQSIDVGKTS [G151P]	1.03	1.12
MAAAGGARLLRAASAVLGGPAGRWLHHAGSRAGSSGLLRNRGPGGSAEASRSLSVSARARSSSEDKITVHFINRDGETLTTKGKVGDSLLDVVVENNLDIDGFGACEGTLACSTCHLIFEDHIYEKLDAITDEENDMLDLAYGLTDRSRLQCQICLTKSMDNMTVRVPETVADARQSIDVGKTS [G151Q]	1.11	1.05
MAAAGGARLLRAASAVLGGPAGRWLHHAGSRAGSSGLLRNRGPGGSAEASRSLSVSARARSSSEDKITVHFINRDGETLTTKGKVGDSLLDVVVENNLDIDGFGACEGTLACSTCHLIFEDHIYEKLDAITDEENDMLDLAYGLTDRSRLRCQICLTKSMDNMTVRVPETVADARQSIDVGKTS [G151R]	1.11	0.946
MAAAGGARLLRAASAVLGGPAGRWLHHAGSRAGSSGLLRNRGPGGSAEASRSLSVSARARSSSEDKITVHFINRDGETLTTKGKVGDSLLDVVVENNLDIDGFGACEGTLACSTCHLIFEDHIYEKLDAITDEENDMLDLAYGLTDRSRLSCQICLTKSMDNMTVRVPETVADARQSIDVGKTS [G151S]	0.0704	-0.359
MAAAGGARLLRAASAVLGGPAGRWLHHAGSRAGSSGLLRNRGPGGSAEASRSLSVSARARSSSEDKITVHFINRDGETLTTKGKVGDSLLDVVVENNLDIDGFGACEGTLACSTCHLIFEDHIYEKLDAITDEENDMLDLAYGLTDRSRLTCQICLTKSMDNMTVRVPETVADARQSIDVGKTS [G151T]	0.645	0.96
MAAAGGARLLRAASAVLGGPAGRWLHHAGSRAGSSGLLRNRGPGGSAEASRSLSVSARARSSSEDKITVHFINRDGETLTTKGKVGDSLLDVVVENNLDIDGFGACEGTLACSTCHLIFEDHIYEKLDAITDEENDMLDLAYGLTDRSRLVCQICLTKSMDNMTVRVPETVADARQSIDVGKTS [G151V]	0.707	-0.147
MAAAGGARLLRAASAVLGGPAGRWLHHAGSRAGSSGLLRNRGPGGSAEASRSLSVSARARSSSEDKITVHFINRDGETLTTKGKVGDSLLDVVVENNLDIDGFGACEGTLACSTCHLIFEDHIYEKLDAITDEENDMLDLAYGLTDRSRLWCQICLTKSMDNMTVRVPETVADARQSIDVGKTS [G151W]	1.06	1.38
MAAAGGARLLRAASAVLGGPAGRWLHHAGSRAGSSGLLRNRGPGGSAEASRSLSVSARARSSSEDKITVHFINRDGETLTTKGKVGDSLLDVVVENNLDIDGFGACEGTLACSTCHLIFEDHIYEKLDAITDEENDMLDLAYGLTDRSRLYCQICLTKSMDNMTVRVPETVADARQSIDVGKTS [G151Y]	1.15	1.08
MAAAGGARLLRAASAVLGGPAGRWLHHAGSRAGSSGLLRNRGPGGSAEASRSLSVSARARSSSEDKITVHFINRDGETLTTKGKVGDSLLDVVVENNLDIDGFGACEGTLACSTCHLIFEDHIYEKLDAITDEENDMLDLAYGLTDRSRLGAQICLTKSMDNMTVRVPETVADARQSIDVGKTS [C152A]	1.22	1.33
MAAAGGARLLRAASAVLGGPAGRWLHHAGSRAGSSGLLRNRGPGGSAEASRSLSVSARARSSSEDKITVHFINRDGETLTTKGKVGDSLLDVVVENNLDIDGFGACEGTLACSTCHLIFEDHIYEKLDAITDEENDMLDLAYGLTDRSRLGDQICLTKSMDNMTVRVPETVADARQSIDVGKTS [C152D]	1.1	1.19
MAAAGGARLLRAASAVLGGPAGRWLHHAGSRAGSSGLLRNRGPGGSAEASRSLSVSARARSSSEDKITVHFINRDGETLTTKGKVGDSLLDVVVENNLDIDGFGACEGTLACSTCHLIFEDHIYEKLDAITDEENDMLDLAYGLTDRSRLGEQICLTKSMDNMTVRVPETVADARQSIDVGKTS [C152E]	1.03	1.1
MAAAGGARLLRAASAVLGGPAGRWLHHAGSRAGSSGLLRNRGPGGSAEASRSLSVSARARSSSEDKITVHFINRDGETLTTKGKVGDSLLDVVVENNLDIDGFGACEGTLACSTCHLIFEDHIYEKLDAITDEENDMLDLAYGLTDRSRLGFQICLTKSMDNMTVRVPETVADARQSIDVGKTS [C152F]	1.1	2.08
MAAAGGARLLRAASAVLGGPAGRWLHHAGSRAGSSGLLRNRGPGGSAEASRSLSVSARARSSSEDKITVHFINRDGETLTTKGKVGDSLLDVVVENNLDIDGFGACEGTLACSTCHLIFEDHIYEKLDAITDEENDMLDLAYGLTDRSRLGGQICLTKSMDNMTVRVPETVADARQSIDVGKTS [C152G]	1.06	1.28
MAAAGGARLLRAASAVLGGPAGRWLHHAGSRAGSSGLLRNRGPGGSAEASRSLSVSARARSSSEDKITVHFINRDGETLTTKGKVGDSLLDVVVENNLDIDGFGACEGTLACSTCHLIFEDHIYEKLDAITDEENDMLDLAYGLTDRSRLGHQICLTKSMDNMTVRVPETVADARQSIDVGKTS [C152H]	1.12	0.972

Reference: the supplement of paper PMC12855868
